Laboratory results as given in the DeepSol protein solubility set.

Assay: soluble on expression in E. coli; label from the status in PepcDB or PDB records

| Sequence | soluble on expression in E. coli |
| --- | --- |
| MEYFNAGGGGSTGNGSTDPYAVIPQQFGNGGQQPQQQVFTDYQQDGSATDYETYQQQQQQYRAAQASQQSSSMYYQNQMTAAQANYFPIHSASEHDFLGPQQPPSATTSVSGAAGAPYQSASGGNKEFMMQHQQRRGNQSGQQQQNQPSQQNNQQQQNQGARQQHPQQMQQQQQSNQSAHFMHQQLQAVQQQQAQQMHHRLQGAPINPQQFMVPPPTMMQPQQMQQAQQQQAQQMHQMQIHHQQHPQMMQQHAQQGYHPHQQNQQHQAGQHQQSHHQSQNHNQHRNHNQSHSGPHHIPQNLMMPRCMLKDWPIRCVVEGKYHAVIIGPNGSTIKDIASSTRCRVDFVNLSKKERTVLGNNDRILTVHGVAEQATKAVARILDVIQSEAVKDDVNVGADTVLRMRAHNQLCGRLIGKAGSSIKEIMQKTGTNITVTKYIEPPGGISGLTANELLGLMERTIMVRGPSIEAVVQAEALISAKLKKCYESDSQLRAQSMQCPMPPMMMPPILPPGASSSAVSAPHFIPTPPGVLQIQPGTTNLRQVRMWVPDSMIGALIGAKGKNIKMIIRDTGASVKIEAPEEKTQREAEEAEKKRKLDETDSGCEGVASGDHPQEFLEDNATINSSDAIEEKPKPVSERMVTINGDDLQLLKAQSYVFSKIAETSSSLPSSGMDGDRSHMLRIRTEVSVPTRIIGRIIGKGGQNVRELQRITGAVVKIPEEERNGGEVYRHDDGLEEDMTMIRTIGNMYSTHNVQFRLAHLVNEYYRSGDHRNKSSDYKGGRPHSAPSSGQEKDGSALEKMDQLGTIAPISNSNRASPKSVSPPKSKSP | not soluble |
| MGSDKIHHHHHHMALSADSRLQFTSDLNICRILNGMWQVSGGHGKINAPAAIKTMFQYVDAGFTTWDLADHYGPAEDFIGEFRRQLVANRGKEALANIQAFTKWVPRPGRMTKKLVEENIDISRRRMDVESLDLMQFHWWDYQDKNYLDALKYMAELQTEGKIKHLALTNFDTEHLQIITEAGIKIVSNQVQFSLVDRRPEVNMVKFCQQHDIKLFTYGTLCGGLLSEKYIGKPEPRGFDLGTTSLRKYKNMVDAWGGWHLFQELLSTLKQIADKHGVSIANVATRYILDKPAVGGVIVGARLGISEHIADNAKVFSFTLDAEDSNVINTISSQSRDLYQLIGDCGDEYRR | not soluble |
| APEAFLNSVLQPFVLPFLQRYPKIQLKLRAADGEIDLFRQGIDVAFKLTDKPDENLVLKEISKTNLVLCASPDYLAQRGMPEHPTQLEQHDCIYLAENDKDNIWSFFKEEAFHSIAVSGRYAVNHSQMRLNGVKAGLGIGIFHDFVVKEALERGEVVEVLSDWMIKSNYHGAVAMQYAQTKYMPARLRVFIGFVNEHLVSKEPTHV | not soluble |
| MKDVTPARADYPWDGERDVIVIGSGCAGLSAALLAAKKSLDVVLCEKSSQVGGTTASAGGVMWIPNSREARAAGVDDSSEQVRVYLRALMGAYYRADLVDPYLKSAPLAAQAIQEDTQVRLKLMPAMSDYHASLPGGKAGGRSLEPERFDGRRLGADFELVRAPIKRLMLLGGLYIDKRRIDEFLNPFGSFRNFIGVIRTLARYAIDRTRFSRGTDIGAGNAFVASALLSLRERGVPIWLNSPMVSLVRNPQGGVAGVAICRDGKLQRIRARKGVILAAGGFPRNAALLEELAGGFPHDQSVGYEGNVGDTLQAARQAGAAIDADLASPCWWTPTSRNKEADGSMSTVLYGYLDRSRPGMIAVNAAGKRFVNDSDSYHDIVYAMFKDGVTPDSRFYLICDRRFVWKRGLGNLIKPYCLSLGRYVRSGYISTGRSIRELAAAIGIDPDALEVTVTRHNGFCETGVDLDFGKGGNPYNRMFGDPRVKPNPNLLAIRHAPFFALRIYPGTLGTILGLKATADAQVVGQDGEAIPGLYACGNDMSSVFRGFYPGAGATLGPGLVFAYRAIEHLARSSGGSAAQSALEHHHHHH | not soluble |
| MNRFSGKSVIVTGSSSGIGRATAVLFAKYGAQVTITGRDAGKLEATKKKMLKVMKNPENVCVVVANLTDSDGQDEIVQSALDAFGRIDVLVNNAGANVVDGTFNTDQSTELYHKTFQINFEAVIEMVKKTKNHLIESKGEIVNVSSVAAGPQALAPSPYYAASKAALDQYTRCVALDLILQGVRVNSVSPGVVTSGFLGAMGMSEQVQKQIEENFTSNRACIPAGVCGKPEDIAELIIFLADRKRSSYIIGQSIVADGGTSLVSGLTAQNIQRNN | not soluble |
| MSMERSLEAWEEVQRHGQDLADRLAQGFTGLIHINPPSFPWPPNHHHLHKAKLFDLEFPTQHFSVIKDSRFSINQPINGVTAILDIGNKIGQAGVDFGAGLNVMVQQFFRRLPIPFLHEDNNKLVVSVDGDKSTRSHRAYVITKGDLGMATERLRDSGFSKTDDTASVTMSEEEVADSYLRAAGLLGRSKGTIDTSSSYDSRTNGMEHSLAARGDLWRVEASHSSSTASDGNSSLFLLQLGPLLFLRDSTLLLPLHLSKQHLLWYGYDRKSFMDLQFPNGQLTYVSGEGLTTSAFVPFCGGLLQAQGQYPGDMRFSYSCKNKCGTRITPMVHWPDKSFGLDLSQPLAWRRSGLLMKPTIQVSVCPTFGGSNPGIKAEVIHSLSDDLNLICGYALNAHPSAFASVAFGRSKWNGNIGRTGIVVRADTPLASIGQPSFSIQLNNAFEF | soluble |
| MGSDKIHHHHHHMPRHVSNLELHNQIQEAALQSHLVPLGSIQLTPHFIPVEGLRRSIQRALKNCQPQDFLYCNKQGHEQLRKALSDHWREDGIYIAPEDIFITNGCMPALSLVIQKLTEVGDSILIPTPTYNGHLQLLASLKRQIVEIPADHRGIDLERLESLMQQGLAKVCLMTANYQNPLGYCFSNAEKQKIAELAAEYQCFIIEDDIFGECGYSSERPLPIRYWDREGYVVWCGSVSKSLSSAYRVGWFCLTTKLEHLKLELLVSNIGVNTPLQLGLADFIYSRGYREHLEQLRPNLMRQVEEYRSCILRAFEGIPIALSQPEGGYALWIQLPKSVDSLALYYTAQAQGITVVPGYVFGEDERYRHFIRLNAGHELTADVRQAIMSLADWSRQQMQTVS | not soluble |
| MKTVALIQARLGSSRLPCKMMLSLHGLPVIDWVVRRVRRATLVDEVVVATSTQPENDILEHHLSRQGVAVFRGPEDDVLERFRLAGAAYGAEQVVRVCADNPLIWGGAIDDLIRFWRAEGCDYAYNHIPRGNLYPDGLGAETLSFALLEEVAREATLPEHREHCLSFIWAHPERYTIRTFDPADPALHRPDLKLDMDTPADYRYLALMDIHPDITPEELVAMLPRTALEHHHHHH | soluble |
| MNYLLIDTSNQPLSVAIMKDNEVIAEKTTDIKKNHSVQLMPEIAEILTESKINKTEITDIVVAEGPGSYTGLRIGVTVAKTLAYALNTNLYGVSSLKALASTVKDSTKLLVPIFDARREAVYAGVYQYQDNELITIIDDTYIPIFELIEKLHQLNQPYVFVGFHIEKIKHLLDSDIVEQLPQASSMKQLIQKPENIHSFTPKYHKLSEAERNWLNQQENNLEHHHHHH | not soluble |
| MSKLDTIFEVVISRDKMEATLKQHEPFPEDHPVTKDELLSFMKEHGVVFGVKESVIDQVVKSEKGLTSSVKVAEGLQPQNGKHGYLQPIQHEEEERDVHSISAMNLRDVLSIPEVKQGQVIGKKIPATLGEDGMNVLGEPIKAKPGREFVLRPGKNSTVDEANGTLVAAVDGQMSVDKRTIHVYPVYEVPGDLTMKHGNISFIGNVIIRGHVPDGFVVKAGGDIRVFGTVEGATLEAGGSIFVGAGIVGQNRGCIRAEGGLHTTFINQAKVEVGGDIEVVQSILHSTCTAGGKIICTRGKGNIVGGALSAEDHIYAKEIGNSMHTKTSLYIGAKEKWVTKEKQLAKEYKTTEEELKKLSLLLQKFQELEKENGLTANGRVQRLRVKNTLVQVKEKHEQIKEQLEDVQENLTLNQAGSIVVEQTLYPNVSAHFGKYRRKIVSNHSNVKLSLVDQEIQLSSRLEHHHHHH | soluble |
| METAPKPVGPYSQAVESGCFMFVSGQIPINPETGALEEGGFKESAKRALDNLKAIVEGAGYSMDDIVKVTVYITDISRFSEFNEVYREYFNRPYPARAVVGVAALPLGAPLEVEAVLYTCRRK | soluble |
| MIMGLENLKPAKGSVKKIKRVGRGQGSGMGKTATRGGKGQTARTGYKAKRGFEGGQQPLQRRLPKIGFRTKDSHIYSINVEKNEAIKNLEEITFSSLRALHHFPLYIEGVKLIGKDAKNLASKIKDERIKTSGQKLEHHHHHH | soluble |
| AHHHHHHASAKWVCKICGYIYDEDAGDPDNGISPGTKFEELPDDWVCPICGAPKSEFEKLEDGSRFIDSNVFLYAMIKPKGNTSKEILKKKEKAKKILLRVENGEDVVTTLIHLSEIANILEAKVNLTTAVRFLENLLLAENVKILPVSVEEYLKAVLISKEKGISVNDALAYLKMKELNIKEIYTFDRHFQNLDVEVIQD | soluble |
| MQKVLAIVGPTAIGKTDLAISLAQKLNGEIISGDSMQVYQEVEVGTAKATKEEQAKVKHYLVDNRSVFDEYSVKDFVDEAKKAISEVAKKGKLPILVGGTGFYVNALLNEMQLGERNDEERGTSQKWEDYLKENGAEKLWQILNEKDPTAAAKIPVPNSRRTMRALTVIDRTGKKFSEQQKKIKPRYDYLIIGLNSDRQEIYRRINLRVDKMMGKGMLEEAKFIYDNRDKEHQILQAIAYKEFFPYFDGEKSLEDCVTQLKTASRRYAKRQLTYFRNQLPIQWFDPLNDLECEQKIINKVREWENGLEHHHHHH | soluble |
| MPNQNFNAQLAEAISALNTPNFTPKLMSVIHSIFDFDCAIILGYREGKHPIYLYDSIENERELLFQRYLTNSFQNDPFFQNLNQHKQQGIFTLKDVAKKGIEYQTYRKQFYDQTGWKDELSMLVEIESGRWVILYFGCLREGKRFSAAQINNLRSHFSVLQSLCQQHWKQAEFNLSEPVVRPDAYTGNMKVAIEQALSSFGIE | not soluble |
| MGSDKIHHHHHHMSEAINHGIIKSYVDGLTTSTLLMPNLPTAEHAVALAKNYPGLFVGQHTNFLLGKPCADPCMIPSLVDEQGNFHRSSYYRQQKQVTFVYEEVRLETIAQLTRFKELTGHYPEHFDCHSIGDEVVDQVFLELAEEYGLHTTLKYSGEKEYPPQQGYFQVTHLLESGALSYIHEGVSVENFLEDDFGLLRMPESAIAEMHFDVGYLDQFVLDNSSYTTLRCKELATICDPRVRQWFEEQGIERITFGDLKK | not soluble |
| MTITQRDASSADAICLSALGMQVFLDTYATQGIRESIAREALDAFSPQAFAHLLAEPATLIIVAESQGHLIGFAQFALRTDHPMLGIPTAAELQRLYVQERFTGRGVGRLLLEAAEQRAAAGNATLLWATVWVGNPRALGVYPRQGYEVKGSPRYVFQGETHENCLFAKAIVKAVR | not soluble |
| MSLPIDTWFPLAVSRNLLTPDPALHERMVAQIFQWRGDLWANPSGESAWTGDMNGVALVHEHPDFAWLRSQVEVEALQFCQALGFQTEALQLWIQRSWPVVSEPGQSIGAHHHPNAHLSAIYYLNGSGDPELGALRIFDDRPRNELVPGLAVGYGEVIAEEAALNQAWIDYPPQAGLLLMFPASTRHGVTENLTDLTRLSVSFDLYLTARSATELAPEYLAPPVNRWSPIQLREGHHHHHH | soluble |
| MYYHALKLSRLAMLTLAGVAVSASAIAADSAPTSQIGPTAEAYIVSHPDKVGEVVATYLAEHPEFLVAASETLHQRQQIAQQQAYVQLALQYRAELLSSSSPSVGPNEAKAAVVMFFDYQCSWCSKMAPVVENLIKANPDTRFIFKEFPIFSSRWPVSGLAARVGEQVWLTQGGAKYLDWHNALYATGKVEGALTEHDVYTLAQHYLTPTQLAAVKEAQSSGAVHDALLTNQALAQHMDFSGTPAFVVMPQTQDGDVKRVTVIPGSTTQDMLQMAIQKAKG | not soluble |
